The record followed here is publication PMC314469, “Protein Interaction Networks by Proteome Peptide Scanning” (PLoS Biology, 2004).

Holding throughout (assay): SPOT array
Test [1] has as its target T1, Boi1 SH3 (BOI1_YEAST), P38041.
T1 chain: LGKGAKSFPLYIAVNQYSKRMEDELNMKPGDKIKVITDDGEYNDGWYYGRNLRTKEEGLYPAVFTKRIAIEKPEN

For test [2], the target named is T2, Rvs167 SH3 (RV167_YEAST), P39743.
T2 chain: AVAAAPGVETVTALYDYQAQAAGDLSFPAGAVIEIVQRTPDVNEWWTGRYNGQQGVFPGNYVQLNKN

In test [3] the target is T3, Boi2 SH3 (BOI2_YEAST), P39969.
T3 chain: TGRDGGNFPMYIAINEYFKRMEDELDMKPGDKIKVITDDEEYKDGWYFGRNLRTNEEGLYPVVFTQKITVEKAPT

Test [4] concerns the target T4, Yfr024 SH3 (LSB3_YEAST), P43603.
T4 chain: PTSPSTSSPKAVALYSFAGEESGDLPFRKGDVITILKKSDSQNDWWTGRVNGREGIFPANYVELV

In test [5] the target is T5, Yhr016c SH3 (YSC84_YEAST), P32793.
T5 chain: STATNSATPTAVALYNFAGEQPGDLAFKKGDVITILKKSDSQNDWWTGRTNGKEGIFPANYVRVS

B1: YKL139W 32-45 (peptide)
chain: LARPPPPKRIRTDS
In the case of B1, the normalised SPOT signal, Boehringer light units (BLU); mean over the file's lines of this peptide in test [1] was found to be 528; in test [2], 1260; in test [3], 70.2; in test [4], 15700; in test [5], 3210.

B2: YNL020C 606-619 (peptide)
chain: KTKPTPPPKPSHLK
Consider B2, for which the normalised SPOT signal, Boehringer light units (BLU); mean over the file's lines of this peptide in test [1] stood at 153; in test [2] it was 8.2; in test [3], 71.3; in test [4], 16700; in test [5], 236.

B3: YLR143W 388-401 (peptide)
chain: KYGPLPPSRASVGS
Regarding B3, the normalised SPOT signal, Boehringer light units (BLU); mean over the file's lines of this peptide came out at 551 in test [1]; 65.7 in test [2]; 41.5 in test [3]; 2010 in test [4]; 488 in test [5].

B4: YJR113C 102-115 (peptide)
chain: KSVPIPPRKNATLD
In the case of B4, the normalised SPOT signal, Boehringer light units (BLU); mean over the file's lines of this peptide amounted to 1140 in test [1]; 12100 in test [2]; 146 in test [3]; 25100 in test [4]; 992 in test [5].

B5: YBR156C 161-174 (peptide)
chain: KSSPWSPYKVEKVL
For B5, the normalised SPOT signal, Boehringer light units (BLU); mean over the file's lines of this peptide in test [1] was 117; in test [2] it was 156; in test [3] it was 122; in test [4], 253; in test [5], 320.

B6: YDR425W 253-266 (peptide)
chain: LAPPLSPTKPSPLH
For the molecule B6, the normalised SPOT signal, Boehringer light units (BLU); mean over the file's lines of this peptide in test [1] amounted to 81.4; in test [2], 30.7; in test [3] it was 6.5; in test [4], 111; in test [5], 77.1.

B7: YJR117W 8-21 (peptide)
chain: LDHPNIPWKLIISG
In the case of B7, the normalised SPOT signal, Boehringer light units (BLU); mean over the file's lines of this peptide in test [1] is 76.1; in test [2], 7.6; in test [3], 35.2; in test [4], 7.9; in test [5], 150.

B8: YDR128W 52-65 (peptide)
chain: LDDPFTPPRWLHHI
With B8, the normalised SPOT signal, Boehringer light units (BLU); mean over the file's lines of this peptide came to 423 in test [1]; 89 in test [2]; 38.5 in test [3]; 3400 in test [4]; 708 in test [5].

B9: YCR087W 13-26 (peptide)
chain: LSIPDLPLRIHNQT
For the molecule B9, the normalised SPOT signal, Boehringer light units (BLU); mean over the file's lines of this peptide in test [1] was determined as 69.2; in test [2], 2710; in test [3], 35.3; in test [4], 25400; in test [5], 31200.

B10: YNL106C 1157-1170 (peptide)
chain: KSKPKVPAKNPELE
Turning to B10, the normalised SPOT signal, Boehringer light units (BLU); mean over the file's lines of this peptide in test [1] amounted to 166; in test [2] it was 50.8; in test [3], 46; in test [4], 396; in test [5], 210.

B11: YPR171W 354-367 (peptide)
chain: KTKPSIPPKKVELN
In the case of B11, the normalised SPOT signal, Boehringer light units (BLU); mean over the file's lines of this peptide stood at 46 in test [1]; 27.4 in test [2]; 34.8 in test [3]; 1930 in test [4]; 133 in test [5].

B12: YCR102C 158-171 (peptide)
chain: KWEPSTPQRNGPIL
Take B12: the normalised SPOT signal, Boehringer light units (BLU); mean over the file's lines of this peptide worked out at 143 in test [1]; 31.1 in test [2]; 31.6 in test [3]; 3400 in test [4]; 1620 in test [5].

B13: YBR235W 52-65 (peptide)
chain: KYDPDNPNKDKLGT
Regarding B13, the normalised SPOT signal, Boehringer light units (BLU); mean over the file's lines of this peptide was 146 in test [1]; 48.2 in test [2]; 66.7 in test [3]; 20.9 in test [4]; 266 in test [5].

B14: YPL093W 387-400 (peptide)
chain: KYDPEDPNRRKLAR
For B14, the normalised SPOT signal, Boehringer light units (BLU); mean over the file's lines of this peptide in test [1] was determined as 310; in test [2] it was 30.9; in test [3], 15.7; in test [4] it was 222; in test [5], 172.

B15: YMR192W 159-172 (peptide)
chain: LDRPQLPPRQVVNA
B15: the normalised SPOT signal, Boehringer light units (BLU); mean over the file's lines of this peptide in test [1] turned out to be 143; in test [2], 25900; in test [3], 31.9; in test [4], 14400; in test [5], 29100.

B16: YOR058C 193-206 (peptide)
chain: KTVPQSPKKPLSLL
As for B16, the normalised SPOT signal, Boehringer light units (BLU); mean over the file's lines of this peptide in test [1] amounted to 101; in test [2], 17.8; in test [3], 53.9; in test [4], 280; in test [5], 192.

B17: YBR108W 84-97 (peptide)
chain: KSFPPPPLKPGQKT
In the case of B17, the normalised SPOT signal, Boehringer light units (BLU); mean over the file's lines of this peptide stood at 112 in test [1]; 57.7 in test [2]; 183 in test [3]; 220 in test [4]; 229 in test [5].

B18: YLR460C 166-179 (peptide)
chain: KWEPSTPQRKGPIL
In the case of B18, the normalised SPOT signal, Boehringer light units (BLU); mean over the file's lines of this peptide in test [1] was found to be 1870; in test [2] it was 51.1; in test [3], 43; in test [4], 2430; in test [5], 603.

B19: YIL161W 160-173 (peptide)
chain: LDYPKAPIKLTMKS
With B19, the normalised SPOT signal, Boehringer light units (BLU); mean over the file's lines of this peptide in test [1] was 48; in test [2], 5.9; in test [3], 12.9; in test [4], 538; in test [5] it was 344.
